T1: mouse CADM3 (mouse, UniProt Q99N28 23-396)
T1 construct: Full-length gene expressed transiently on Expi293F cells; also called mouse CADM3/Expi293F cells; Mouse CADM3-expressing cells
T1 sequence: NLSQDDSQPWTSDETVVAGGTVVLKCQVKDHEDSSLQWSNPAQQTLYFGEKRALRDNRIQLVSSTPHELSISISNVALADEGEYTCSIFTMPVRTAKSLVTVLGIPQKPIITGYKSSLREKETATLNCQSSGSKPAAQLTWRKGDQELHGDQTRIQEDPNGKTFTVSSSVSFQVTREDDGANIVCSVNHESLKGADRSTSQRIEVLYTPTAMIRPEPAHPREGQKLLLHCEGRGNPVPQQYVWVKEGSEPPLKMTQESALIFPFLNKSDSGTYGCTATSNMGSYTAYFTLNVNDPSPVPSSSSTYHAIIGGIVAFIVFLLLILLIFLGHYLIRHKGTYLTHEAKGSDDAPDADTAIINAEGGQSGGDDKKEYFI

T2: human CADM3 (human, UniProt Q8N126 25-398)
T2 construct: Full-length gene expressed transiently on Expi293F cells; also called cell adhesion molecule 3; human CADM3/Expi293F cells
T2 sequence: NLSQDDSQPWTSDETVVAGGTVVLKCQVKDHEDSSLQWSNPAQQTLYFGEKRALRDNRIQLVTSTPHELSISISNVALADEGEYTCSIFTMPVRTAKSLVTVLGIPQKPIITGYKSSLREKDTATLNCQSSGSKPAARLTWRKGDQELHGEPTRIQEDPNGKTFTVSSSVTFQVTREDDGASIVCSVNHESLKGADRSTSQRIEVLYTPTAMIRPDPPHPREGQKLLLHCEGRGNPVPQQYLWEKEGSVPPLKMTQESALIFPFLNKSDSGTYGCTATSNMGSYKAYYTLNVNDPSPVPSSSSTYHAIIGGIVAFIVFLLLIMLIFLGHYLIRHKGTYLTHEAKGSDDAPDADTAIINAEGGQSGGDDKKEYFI


Experiments:
mouse CADM3 = target: T1, mouse CADM3; assay: flow cytometry, 10 ug/mL, mouse CADM3/Expi293F vs parent Expi293F cells
mCADM3-GST = target: T3, mCADM3-GST (mouse); assay: SPR (Biacore T-100), antibody captured, mCADM3-GST as analyte
T3 construct: also called extracellular domain of mouse CADM3 to which GST was added at the C-terminal side; mouse CADM3-GST
Method: (§1) The affinity of the anti-CADM3 antibodies produced in Example 2 for human CADM3 and mouse CADM3 was measured using Biacore T-100 (GE Healthcare). Each of the antibodies was immobilized on a […] sensor chip using a Human antibody Capture kit, and the binding ability was evaluated using hCADM3-GST and mCADM3-GST produced in Example 4 as analytes.
(§2) The obtained sensorgram was analyzed with BIA evaluation software, and the dissociation constant (KD value) was calculated.

hCADM3-GST = target: T4, hCADM3-GST (human); assay: SPR (Biacore T-100), antibody captured, hCADM3-GST as analyte
T4 construct: also called extracellular domain of human CADM3 to which GST was added at the C-terminal side; human CADM3-GST
Method: as §1, §2

human CADM3 = target: T2, human CADM3; assay: flow cytometry, 10 ug/mL, human CADM3/Expi293F vs parent Expi293F cells
Method: By using the cells, the reactivity of the antibodies produced in Example 2 with the CADM3-expressing cells was analyzed by a fluorescence activated cell sorting (FACS) method according to the following procedure.
After washing with SB, the cells were suspended in SB, and the fluorescence intensity of each cell was measured using a flow cytometer FACS CANTO II (manufactured by Becton, Dickinson and Company). Note that as a negative control, 10 μg/mL of the anti-AVM antibody was used.
The detection results were analyzed, and a mean fluorescence intensity (MFI) was calculated using a geometric mean. Further, with respect to the MFI when the concentration of each antibody was 10 μg/mL, the ratio of the MFI (mean fluorescence intensity ratio) between the human CADM3/Expi293F cells and the Expi293F cells (parent cell line) was calculated.

| Mean fluorescence intensity ratio (mouse CADM3) | binding result (mCADM3-GST) | binding result (hCADM3-GST) | Mean fluorescence intensity ratio (human CADM3) | Binder |
| --- | --- | --- | --- | --- |
| 9.2 | binds | binds | 7.3 | CADM3219 hG4PE(R409K) (antibody, V domains shown, Human IgG4 variant (S228P, L235E, R409K), vector pCI-hKG4PE(R409K)) VH: QVQLVQSGAEVKKPGASVKVSCKASGYSFTGYYIHWVRQAPGQGLEWMGRINPNSGGTTYAPKFQGRFTMTRDTSTTTVYLELSGLRSEDTAVYYCARVLERQGRPFEADAFDIWGQGTMVTVSS VL: not shown |
| 8.87 | binds | binds | 37.5 | iCADM3_3R1-L10 VHH-hG4PE(R409K) (Fc fusion, VHH-Fc antibody; also called anti-CADM3 VHH-Fc antibody iCADM3_3R1-L10; not shown: Hinge-CH2-CH3 region of the human IgG4 heavy chain constant region (IgG4 variant)) QVQLVESGGGLVQAGGSLRLSCAASGSIFSIHAMGWYRQAPGKQRELVATVTSGGSTNYADSVKGRFTISRDNAKNTVYLQMNSLKPEDTAVYYCNAETPYYSSTYYTNYWGQGTQVTVSS |
| 8.2 | binds | binds | 8.7 | CADM3404 hG4PE(R409K) (antibody, V domains shown, Human IgG4 variant (S228P, L235E, R409K), vector pCI-hKG4PE(R409K)) VH: EVQLVETGGGVVQPGRSLRLSCAASGFAFSNYGMHWVRQAPGKGLEWVSVIYSGGNTDYADSVKGRFTISRDNSKNTVYLQMNSLRAEDTAVYYCASRRVVPGVIDYFDSWGQGTLVTVSS VL: not shown |
| 9.4 | binds | binds | 10.8 | CADM3402 hG4PE(R409K) (antibody, V domains shown, Human IgG4 variant (S228P, L235E, R409K), vector pCI-hKG4PE(R409K)) VH: EVQLVESGGGLVQPGGSLRLSCATSGFRFSMYGMHWVRQSPGKGLEWVSVIYSGGNTDYADSVKGRFTISRDNSKNTVYLQMNSLRAEDTAVYYCASRRVVPGVIDYFDSWGQGTLVTVSS VL: not shown |
| 5.4 | binds | binds | 5.7 | CADM3458 hG4PE(R409K) (antibody, V domains shown, Human IgG4 variant (S228P, L235E, R409K), vector pCI-hKG4PE(R409K)) VH: EVQLVESGGGVVQPGRSLRLSCAASGFTFSRYGIHWVRQAPGKGLEWVAVIYSGGNTDYADSVKGRFTISRDNSKNTVYLQMNSLRAEDTAVYYCASRRVVPGVIDYFDSWGQGTLVTVSS VL: not shown |
| 31.6 | binds | binds | 34.4 | CADM3312 hG4PE(R409K) (antibody, V domains shown, Human IgG4 variant (S228P, L235E, R409K), vector pCI-hKG4PE(R409K)) VH: QLQLQESGPGLVKPSETLSLTCSVSGGSIRGHYWSWIRQPPGKGLEWMGYINHIGSAAYNPSLKSRVTISVDTSKNQFSLKLSSVTAADTAVYYCARMGPWWELDYWGQGTLVTVSS VL: not shown |
| 4.21 | binds | binds | 25.1 | iCADM3_3R1-L5 VHH-hG4PE(R409K) (Fc fusion, VHH-Fc antibody; also called anti-CADM3 VHH-Fc antibody iCADM3_3R1-L5; not shown: Hinge-CH2-CH3 region of the human IgG4 heavy chain constant region (IgG4 variant)) QVQLVESGGGLVQAGGSLRLSCAASGSIVSVNAMGWYRQAPGKQRELVATITSGGSTNYADSAKGRFTISRDNAKNTMYLQMNSLKPEDTAVYYCNGEFWSRRDTRPPGVVNYWGQGTQVTVSS |
| 12.5 | binds | binds | 10.2 | CADM3309 hG4PE(R409K) (antibody, V domains shown, Human IgG4 variant (S228P, L235E, R409K), vector pCI-hKG4PE(R409K)) VH: EVQLVQSGAEMKKPGSSVKLSCKFSGGDFRSYPISWVRQAPGQGLEWMGGIIPIFSRVNYAQRFLGRITITADESTSTAYMELRSLTSDDTAVYYCATDTPSGYNSPYYYKGMDVWGQGTLVTVSS VL: not shown |
| 9.2 | binds | binds | 10 | CADM3314 hG4PE(R409K) (antibody, V domains shown, Human IgG4 variant (S228P, L235E, R409K), vector pCI-hKG4PE(R409K)) VH: QVQLVESGGGVVQPGGSLRLSCAASGFSFNNHGMHWVRQAPGKGLEWVTFIRFDGSSKYYADSVKGRFTISRDNSKNTVYLEMNSLRAEDTGVYYCVNTPRGWSFDIWGRGTLVTVSS VL: not shown |
| 48.7 | binds | binds | 4.8 | CADM3349 hG4PE(R409K) (antibody, V domains shown, Human IgG4 variant (S228P, L235E, R409K), vector pCI-hKG4PE(R409K)) VH: QVQLQQWGGGLLTPSETLSLSCDVSGGAFTNYHWTWIRQPPGKGLEWIGEIFHTGTTNYNPSLQGRVAMSIDTTKRQFFLRLTSLTAADTAVYYCARVGKYGWYVGDFWGQGTTVTVSS VL: not shown |
| 6.2 | binds | binds | 6 | CADM3301 hG4PE(R409K) (antibody, V domains shown, Human IgG4 variant (S228P, L235E, R409K), vector pCI-hKG4PE(R409K)) VH: QMQLVQSGAEVKKPGSSVKVSCKASGGTFNNYAISWVRQAPGQGLEWMGGNIPLSGTPKYAQKFQGRITMTADKSTSTEYMELSSLTSEDTAVYYCARDTPSGYNSPYYYKGMDVWGQGTMVTVSS VL: not shown |
| 7.1 | binds | binds | 6.5 | CADM3316 hG4PE(R409K) (antibody, V domains shown, Human IgG4 variant (S228P, L235E, R409K), vector pCI-hKG4PE(R409K)) VH: EVQLVETGGALVQPGGSLRLSCAASGFTFSSYSMNWVRQAPGKGLEWLSGISGGAFSTHYADSVKGRFTISRDNSKNTLYLQMNSLRAEDTAVYYCARVGRLSGSYNRYYYYYGMDVWGQGTLVTVSS VL: not shown |
| 35.5 | binds | binds | 32.2 | iCADM3_3R1-L11 VHH-hG4PE(R409K) (Fc fusion, VHH-Fc antibody; also called anti-CADM3 VHH-Fc antibody iCADM3_3R1-L11; not shown: Hinge-CH2-CH3 region of the human IgG4 heavy chain constant region (IgG4 variant)) QVQLVESGGGLVQAGGSLRLSCAASGSIFSFNAMGWYRQAPGKQRGLVAVITSGGYTNYADSVKGRFTITRDNAKNTVYLQMNSLKPEDTAVYYCNAEGVYSDYVIMNYWGQGTQVTVSS |
| 8.08 | binds | binds | 4.22 | CADM301 scFv-hG4PE (Fc fusion, also called anti-CADM3 scFv-Fc antibody) VH: QVQLVQSGAEVRRPGTSVKVSCKASGYSFTSYDINWVRLATGQGLEWMGWMNPNTGDTGSPQKFQDRVTMTRDISTGTAYLELRGLKSEDTAIYYCARGFLVTAYTAEFFPHWGQGTLVTVSS VL: SYVLTQPPSVSVAPGKTARLTCGGNNIGSKSVHWYQQRPGQAPVLVINYDSDRPSGIPERFSGSNSENTATLTISRVEAGDEADYYCQVWDSGSDHVVFGGGTQLIIL |
| 8.8 | binds | binds | 8.2 | CADM3351 hG4PE(R409K) (antibody, V domains shown, Human IgG4 variant (S228P, L235E, R409K), vector pCI-hKG4PE(R409K)) VH: EVQLLQSGGGLVQPGGSLRLSCAASGLIFSDHYMDWVRQAPGKGLEWVGSIRNKRNGGSTEYAASVKGRFSISRDDSKNSLYLQMNSLKTEDTAMYFCATTRTGYQGFYGMDVWGQGTTVTVSS VL: not shown |
| 14.6 | binds | binds | 14.7 | CADM3432 hG4PE(R409K) (antibody, V domains shown, Human IgG4 variant (S228P, L235E, R409K), vector pCI-hKG4PE(R409K)) VH: QVQLQQSGPGLVKASQTLSLTCAISGDSVSSRSAAWDWIRQSPSRGLEWLGRTYYRSTWYNDYASSVRSRISINPDTSKNQFSLQLNSVTPEDTAVYYCVRANRKLPAPGQHFYYGMDVWGQGTTVTVSS VL: not shown |
| 42.6 | binds | binds | 52.3 | CADM3102 scFv-hG4PE (Fc fusion, also called anti-CADM3 scFv-Fc antibody) VH: QMQLVQSGAEVKKPGSSVKVSCKASGGTFSSYAISWVRQAPGQGLEWMGGIIPMSGTANYAQKFQGRVTITADESTSTAYMELSSLRSEDTAVYYCARVEESGWYDHYHGMDVWGQGTTVTVSS VL: DVVMTQSPLSLPVTPGEPASISCTSSQSLLYSNGFNYLDWYLQKPGQSPQLLIYLGSNRASGVPDRFSGSGSGTDFTLKISRVEAEDVGVYYCMQALTTHPTFGGGTKVDIK |

Source: US20210147541A1 (Kyowa Kirin, published 2021)
